# Measurements from patent US20230029835A1 (KEYMED BIOSCIENCES, published 2023).
# Positions count from the first letter of the chain named.
# T1: Cynomolgus macaques TSLP recombinant protein (Cynomolgus macaques, UniProt Q969D9 29-159 (human entry), limits assumed, biotinylated in the blocking assays (sites not given))
# T1 construct: also called cyTSLP; biotinylated Cynomolgus macaques TSLP protein
# T1 chain: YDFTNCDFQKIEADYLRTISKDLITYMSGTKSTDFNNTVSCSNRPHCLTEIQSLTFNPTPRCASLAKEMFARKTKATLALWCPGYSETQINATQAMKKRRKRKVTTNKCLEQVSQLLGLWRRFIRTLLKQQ
# B1: 79D6 chimeric antibody (antibody, V domains shown)
# VH: QVQLQQSGAELVMPGASVKMSCKASGYTFTGYWMHWVKQRPGQGLEWIGTIDNSDSDTTYNQKFKGKVTLTVDESSSTAYMQLSSLTSEDSAVYYCARSVDGYLDYWGQGTTLTVSS
# VL: DIQMIQSPASLSASVGETVTITCRASENIYSYLAWYQQIQGKSPQLLVYYAKTLPEGVPSRFSGSGSGTQFSLKINSLQPEDFGSYYCQHHYGTPWTFGGGTKLEIK
# B2: 76A8 chimeric antibody (antibody, V domains shown)
# VH: QVQLQQSGPQLVRPGASVKISCKASGYSFTSYWMHWVKQRPGQGLEWIGLIDPSDSETGLNQRFKDKATLTVDNPSSTAYMQLSSPTSEDSAVYYCARSLDGYYDYWGQGTTLTVSS
# VL: DIQMIQSPASLSASVGETVTITCRASGNIHNYLAWYQQKQGKSPQLLVYNAKTLADGVPSRFSGSGSGTQYSLKINSLQPEDFGSYYCQHFWSTPWTFGGGTRLEIK
# B3: Ab21 (antibody, V domains shown)
# VH: QVQLVQSGAEVKKPGSSVKVSCKASGYTFTDYWMHWVRQAPGQGLEWMGTIDNSDSDTTYNQKFQGRVTMTRDTSTSTVYMELSSLRSEDTAVYYCARSVDGYLDYWGQGTLVTVSS
# VL: DIQMTQSPSSLSASVGDRVTITCRTSENIYSYLAWYQQKPGKAPKLLIYFAKTLTDGVPSRFSGSGSGTDFTLTISSLQPEDFATYYCQHHYGTPWTFGQGTKVEIK
# notes: Humanized; also called h71G4VHv3/h71G4VKv1
# B4: Ab19 (antibody, V domains shown)
# VH: QVQLVQSGAEVKKPGSSVKVSCKASGYTFTDYWMHWVRQAPGQGLEWMGTIDNSDSDTTYNPSFQGHVTISADKSISTAYLQWSSLKASDTAMYYCARSVDGYLDYWGQGTLVTVSS
# VL: B3 VL
# notes: Humanized; also called h71G4VHv1/h71G4VKv1
# B5: Ab4 (antibody, V domains shown)
# VH: EVQLVQSGAEVKKPGESLRISCKASGYSFISYWIHWVRQMPGKGLEWMGIIDPSDSDTSLNQSFQGHVTISADKSISTAYLQWSSLKASDTAMYYCARSLDGYYDYWGQGTLVTVSS
# VL: B3 VL with T25A, F50N, K52R, T55P, D56E, G93T
# notes: Humanized; also called h39G5VHv4/h39G5VKv1
# B6: Ab8 (antibody, V domains shown)
# VH: B5 VH with R19K, S28T, I30T, S31D, I34M, I70L, A72V, I76S, S77T
# VL: B3 VL with T25A, F50N, K52R, T55P, D56E, G93T
# notes: Humanized; also called h39G5VHv8/h39G5VKv1
# B7: Ab3 (antibody, V domains shown)
# VH: B5 VH with I70L, A72V, I76S, S77T
# VL: B3 VL with T25A, F50N, K52R, T55P, D56E, G93T
# notes: Humanized; also called h39G5VHv3/h39G5VKv1
# B8: Ab25 (antibody, V domains shown)
# VH: B3 VH with T59S, Y60L, M70L, R72V, V79A, V100L, L104Y
# VL: B3 VL
# notes: Humanized; also called h39G5VHv6/h71G4VKv1
# B9: Ab1 (antibody, V domains shown)
# VH: QVQLVQSGAEVKKPGSSVKVSCKASGYSFISYWIHWVRQAPGQGLEWMGIIDPSDSDTSLNQKFQGRVTLTVDKSSTTAYMELSSLRSEDTAVYYCARSLDGYYDYWGQGTLVTVSS
# VL: B3 VL with T25A, F50N, K52R, T55P, D56E, G93T
# notes: Humanized; also called h39G5VHv1/h39G5VKv1
# B10: Ab10 (antibody, V domains shown)
# VH: B9 VH with S28T, I30T, S31D, I34M, L70I, V72A, K74T, S76T, T77S
# VL: B3 VL with T25A, F50N, K52R, T55P, D56E, G93T
# notes: Humanized; also called h39G5VHv10/h39G5VKv1
# B11: Ab2 (antibody, V domains shown)
# VH: B9 VH with L70I, V72A, K74E, S76T, T77S
# VL: B3 VL with T25A, F50N, K52R, T55P, D56E, G93T
# notes: Humanized; also called h39G5VHv2/h39G5VKv1
# B12: Ab5 (antibody, V domains shown)
# VH: B9 VH with S28T, I30T, S31D, I34M, K74T, S76T, T77S
# VL: B3 VL with T25A, F50N, K52R, T55P, D56E, G93T
# notes: Humanized; also called h39G5VHv5/h39G5VKv1
# B13: Ab13 (antibody, V domains shown)
# VH: B5 VH with R19K, S28T, I30T, S31D, I34M
# VL: B3 VL with T25A, F50N, K52R, T55P, D56E, G93T
# notes: Humanized; also called h39G5VHv13/h39G5VKv1
# B14: Ab20 (antibody, V domains shown)
# VH: B3 VH with M70L, R72V, V79A
# VL: B3 VL
# notes: Humanized; also called h71G4VHv2/h71G4VKv1
# B15: Ab6 (antibody, V domains shown)
# VH: B3 VH with T59S, Y60L, M70L, R72V, V79A, V100L, L104Y
# VL: B3 VL with T25A, F50N, K52R, T55P, D56E, G93T
# notes: Humanized; also called h39G5VHv6/h39G5VKv1
# B16: Ab27 (antibody, V domains shown)
# VH: B3 VH with T59S, Y60L, M70I, R72A, V79A, V100L, L104Y
# VL: B3 VL
# notes: Humanized; also called h39G5VHv11/h71G4VKv1
# B17: Ab11 (antibody, V domains shown)
# VH: B3 VH with T59S, Y60L, M70I, R72A, V79A, V100L, L104Y
# VL: B3 VL with T25A, F50N, K52R, T55P, D56E, G93T
# notes: Humanized; also called h39G5VHv11/h39G5VKv1
# B18: Ab17 (antibody, V domains shown)
# VH: B3 VH with M70L, R72V, V79A
# VL: B3 VL with T25A, F50N, K52R, T55P, D56E, G93T
# notes: Humanized; also called h71G4VHv2/h39G5VKv1
# B19: Ab18 (antibody, V domains shown)
# VH: B3 VH
# VL: B3 VL with T25A, F50N, K52R, T55P, D56E, G93T
# notes: Humanized; also called h71G4VHv3/h39G5VKv1
# B20: Ab7 (antibody, V domains shown)
# VH: B9 VH with S28T, I30T, S31D, I34M, I50T, P53N, K74E, T77S
# VL: B3 VL with T25A, F50N, K52R, T55P, D56E, G93T
# notes: Humanized; also called h39G5VHv7/h39G5VKv1
# B21: Ab15 (antibody, V domains shown)
# VH: B5 VH with R19K, S28T, I30T, S31D, I34M, I50T, P53N, I76S, S77T
# VL: B3 VL with T25A, F50N, K52R, T55P, D56E, G93T
# notes: Humanized; also called h39G5VHv15/h39G5VKv1
# B22: Ab16 (antibody, V domains shown)
# VH: B4 VH
# VL: B3 VL with T25A, F50N, K52R, T55P, D56E, G93T
# notes: Humanized; also called h71G4VHv1/h39G5VKv1
# B23: Ab9 (antibody, V domains shown)
# VH: EVQLVQSGAEVKKPGESLKISCKASGYTFTDYWMHWVRQMPGKGLEWMGTIDNSDSDTSLNQSFQGHVTLSVDKSSTTAYLQWSSLKASDTAMYYCARSLDGYYDYWGQGTLVTVSS
# VL: B3 VL with T25A, F50N, K52R, T55P, D56E, G93T
# notes: Humanized; also called h39G5VHv9/h39G5VKv1
# Biological target: T2, human TSLP recombinant protein (human, UniProt Q969D9 29-159, biotinylated in the blocking and cell-binding assays (sites not given))
# T2 construct: also called biotinylated human TSLP protein
# Assay: competition ELISA, biotin-human TSLP to coated human TSLPR-Fc
# Experimental: (§1) Human TSLPR recombinant protein was coated onto a 96-well microtiter plate at 1 μg/mL in carbonate buffer overnight at 4° C. The plate was washed three times with PBS and blocked by adding 200 μL/well of PBS containing 2% skim milk for 1 hour. […] The 96-well plate was washed three times with PBS, and 100 μL of the incubated mixture was added to each well and incubated for 1 hour at room temperature. After washing with PBST and PBS three times, respectively, 100 μL of SA-HRP was added to each well and incubated at room temperature for 30 minutes in the dark. After washing with PBST and PBS three times, respectively, 100 μL of TMB substrate was added to well for color development at 37° C. for 10 minutes, the reaction was terminated with 50 μL of 2M sulfuric acid solution per well, and the absorbance was read at a wavelength of 450 nm.
row,IC50,Binder
1,1.35 nM,B1
2,1.42 nM,B2

# Biological target: T2, human TSLP recombinant protein
# Assay: SPR BIAcore T200, antibody captured on Protein A, human TSLP injected
# Experimental: After each injection cycle, the Protein A chip surface was regenerated with regeneration buffer 10 mM glycine (pH 2.0) at a flow rate of 30 μL/min.
# The association rate constant (ka) and dissociation rate constant (kd) and equilibrium dissociation constant KD were analyzed by fitting the resulting data to a Langmuir 1:1 kinetics theoretical model using BIAevaluation software.
Kd,koff,kon,Binder
0.0204 nM,8.77e-05 s⁻¹,4.31e+06 M⁻¹ s⁻¹,B1
0.026 nM,8.36e-05 s⁻¹,3.22e+06 M⁻¹ s⁻¹,B2

# Biological target: T2, human TSLP recombinant protein
# Assay: competition ELISA, biotin-human TSLP to coated human TSLPR-Fc
# Remark: another data set of the same source
# Experimental: as §1
row,IC50,Binder
1,2.18 nM,B3
2,2.74 nM,B4
3,1.69 nM,B5
4,2.05 nM,B6
5,1.65 nM,B7
6,1.82 nM,B8
7,1.7 nM,B9
8,1.36 nM,B10
9,1.49 nM,B11
10,1.69 nM,B12
11,1.1 nM,B13
12,2 nM,B14

# Biological target: T2, human TSLP recombinant protein
# Assay: cell-based or functional assay
row,Inhibition IC50 of STAT5 reporter gene,Binder
1,9.61 nM,B1
2,9.78 nM,B2

# Biological target: T2, human TSLP recombinant protein
# Assay: cell-based or functional assay
# Remark: another data set of the same source
row,Inhibition of Cell Proliferation IC50,Binder
1,178 nM,B3
2,46.2 nM,B14

# Biological target: T1, Cynomolgus macaques TSLP recombinant …
# Assay: ELISA on coated cynomolgus TSLP;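 for result: Read-out was TMB colorimetric signal measured as absorbance at 450 nm after 10 min development at 37 °C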
# Experimental: (§2) The plate was washed three times with PBS and blocked by adding 200 μL/well of PBS containing 2% skim milk for 1 hour. […] After washing with PBST and PBS three times, respectively, 100 μL of TMB substrate was added to each well for color development at 37° C. for 10 minutes, the reaction was terminated with 50 μL of 2M sulfuric acid solution per well, and the absorbance was read at a wavelength of 450 nm.
row,EC50,Binder
1,0.73 nM,B1
2,0.47 nM,B2

# Biological target: T2, human TSLP recombinant protein
# Assay: ELISA on coated human TSLP
# Experimental: as §2
row,EC50,Binder
1,2.79 nM,B15
2,0.28 nM,B3
3,0.27 nM,B4
4,1.08 nM,B16
5,0.39 nM,B5
6,0.4 nM,B6
7,36 nM,B17
8,1.98 nM,B18
9,2.15 nM,B19
10,0.22 nM,B7
11,1.89 nM,B20
12,62.9 nM,B21
13,5.87 nM,B22
14,3.03 nM,B23
15,0.27 nM,B8
16,0.19 nM,B9
17,0.32 nM,B10
18,0.21 nM,B11
19,0.26 nM,B12
20,0.66 nM,B13
21,0.17 nM,B14

# Biological target: T2, human TSLP recombinant protein
# Assay: flow cytometry competition, biotin-human TSLP to Ba/F3-hTSLPR-IL7Rα cells
# Experimental: Ba/F3-hTSLPR-IL7Rα cells were washed three times with PBS, centrifuged at 300 g for 3 minutes, and blocked with 3% BSA/PBS for 30 minutes. The cells were resuspended and added to a 96-well U-plate at 5×10⁴/well.
row,IC50,Binder
1,0.36 nM,B3
2,0.45 nM,B4
3,0.35 nM,B8
4,0.33 nM,B14

# Biological target: T1, Cynomolgus macaques TSLP recombinant …
# Assay: competition ELISA, biotin-cynomolgus TSLP to coated cynomolgus TSLPR-Fc
# Experimental: Cynomolgus macaques TSLPR recombinant protein was coated onto a 96-well microtiter plate at 1 g/mL in carbonate buffer overnight at 4° C. The plate was washed three times with PBS and blocked by adding 200 μL/well of PBS containing 2% skim milk for 1 hour. […] The 96-well plate was washed three times with PBS, and 100 μL of the incubated mixture was added to each well and incubated for 1 hour at room temperature. After washing with PBST and PBS three times, respectively, 100 μL of SA-HRP was added to each well and incubated at room temperature for 30 minutes in the dark. After washing with PBST and PBS three times, respectively, 100 μL of TMB substrate was added to well for color development at 37° C. for 10 minutes, the reaction was terminated with 50 μL of 2M sulfuric acid solution per well, and the absorbance was read at a wavelength of 450 nm.
row,IC50,Binder
1,1.08 nM,B3
2,1.76 nM,B4
3,0.43 nM,B5
4,1 nM,B6
5,0.62 nM,B7
6,0.85 nM,B8
7,1.78 nM,B9
8,0.37 nM,B10
9,1.1 nM,B11
10,0.28 nM,B12
11,0.55 nM,B13
12,1.32 nM,B14

# Biological target: T1, Cynomolgus macaques TSLP recombinant …
# Assay: ELISA on coated cynomolgus TSLP;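 for result: Read-out was TMB colorimetric signal measured as absorbance at 450 nm after 10 min development at 37 °C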
# Remark: another data set of the same source
# Experimental: as §2
binding result,EC50,Binder
binds,,B15
,0.54 nM,B3
,0.65 nM,B4
,4.22 nM,B16
,5.54 nM,B5
,5.51 nM,B6
binds,,B17
,4.44 nM,B18
,17.9 nM,B19
,2.22 nM,B7
binds,,B20
no binding,,B21
,12.6 nM,B22
,209 nM,B23
,1.16 nM,B8
,2.29 nM,B9
,2.24 nM,B10
,2.53 nM,B11
,2.85 nM,B12
,5.68 nM,B13
,0.27 nM,B14

# Biological target: T1, Cynomolgus macaques TSLP recombinant …
# Assay: competition ELISA, biotin-cynomolgus TSLP to coated cynomolgus TSLPR-Fc
# Remark: another data set of the same source
# Experimental: Cynomolgus macaques TSLPR recombinant protein was coated onto a 96-well microtiter plate at 1 μg/mL in carbonate buffer overnight at 4° C. The plate was washed three times with PBS and blocked by adding 200 μL/well of PBS containing 2% skim milk for 1 hour. […] The 96-well plate was washed three times with PBS, and 100 μL of the incubated mixture was added to each well and incubated for 1 hour at room temperature. After washing with PBST and PBS three times, respectively, 100 μL of SA-HRP was added to each well and incubated at room temperature for 30 minutes in the dark. After washing with PBST and PBS three times, respectively, 100 μL of TMB substrate was added to well for color development at 37° C. for 10 minutes, the reaction was terminated with 50 μL of 2M sulfuric acid solution per well, and the absorbance was read at a wavelength of 450 nm.
row,IC50,Binder
1,0.31 nM,B1
2,0.73 nM,B2

# Biological target: T2, human TSLP recombinant protein
# Assay: ELISA on coated human TSLP
# Remark: another data set of the same source
# Experimental: as §2
row,EC50,Binder
1,0.58 nM,B1
2,0.26 nM,B2
